For 2 substances, stoichiometry N results are on record in publication doi:10.1101/102160.

Test [1] concerns the target CTD2, C-terminal domain of the OCP2 from Fremyella diplosiphon, with C-terminal HisTag (Fremyella diplosiphon UTEX481). As to the kind of experiment: SEC. For orientation: Size exclusion chromatography separates by hydrodynamic size, large species first.
The target of test [2] is NTD1-CTD1 heterodimer (with canthaxanthin) (Fremyella diplosiphon UTEX481). As to the kind of experiment: SEC.

As usually defined, the stoichiometry N is the number of molecules, sites or subunits per partner or assembly. Consider “CTD2, C-terminal domain of the OCP2 from Fremyella diplosiphon, with C-terminal HisTag (domain or fragment)”, for which the stoichiometry N in test [1] was determined as 2. For “NTD1-CTD1 heterodimer (with canthaxanthin) (complex)”, the stoichiometry N in test [2] turned out to be 2.
